This note sets out measurements from US20190010248A1 (Pieris, published 2019).

For this experiment, the target named is T1, recombinant CD137-Fc fusion (#838-4B-100, R&D Systems) (human, UniProt Q07011 24-186).
T1 construct: also called Fc-fusion of human CD137; human CD137-Fc; not shown: Fc part of the bought fusion
In words: ELISA, CD137-Fc coated, detection with anti-hNGAL antibody-HRP. (In an ELISA, binding on a coated surface is turned into a signal by an enzyme label.)

B1: lipocalin mutein of SEQ ID NO: 2 (designed binder)
chain: QDSTSDLIPAPPLSKVPLQQNFQDNQFHGKWYVVGQAGNIRLREDKDPIKMMATIYELKEDKSYDVTMVKFDDKKCMYDIWTFVPGSQPGEFTLGKIKSFPGHTSSLVRVVSTNYNQHAMVFFKFVFQNREEFYITLYGRTKELTSELKENFIRFSKSLGLPENHIVFPVPIDQCIDG
notes: also called positive control lipocalin mutein; CD137-specific lipocalin mutein in monomeric form
In the case of B1, the EC50 (commonly the concentration giving half of the maximal effect) came out at 0.49 nM.
